Here are results for three molecules from US20230365705A1 (DYNAMICURE BIOTECHNOLOGY, published 2023).

Assay [1] addresses T1, Human CD93 on cells (human CD93 expressing CHO cells; HUVEC, U937 and KG1a cells) (human, UniProt Q9NPY3 22-652).
T1 construct: whole, on cells; also called hCD93 expressing CHO cells; hCD93 CHO cells
T1 sequence (looked up): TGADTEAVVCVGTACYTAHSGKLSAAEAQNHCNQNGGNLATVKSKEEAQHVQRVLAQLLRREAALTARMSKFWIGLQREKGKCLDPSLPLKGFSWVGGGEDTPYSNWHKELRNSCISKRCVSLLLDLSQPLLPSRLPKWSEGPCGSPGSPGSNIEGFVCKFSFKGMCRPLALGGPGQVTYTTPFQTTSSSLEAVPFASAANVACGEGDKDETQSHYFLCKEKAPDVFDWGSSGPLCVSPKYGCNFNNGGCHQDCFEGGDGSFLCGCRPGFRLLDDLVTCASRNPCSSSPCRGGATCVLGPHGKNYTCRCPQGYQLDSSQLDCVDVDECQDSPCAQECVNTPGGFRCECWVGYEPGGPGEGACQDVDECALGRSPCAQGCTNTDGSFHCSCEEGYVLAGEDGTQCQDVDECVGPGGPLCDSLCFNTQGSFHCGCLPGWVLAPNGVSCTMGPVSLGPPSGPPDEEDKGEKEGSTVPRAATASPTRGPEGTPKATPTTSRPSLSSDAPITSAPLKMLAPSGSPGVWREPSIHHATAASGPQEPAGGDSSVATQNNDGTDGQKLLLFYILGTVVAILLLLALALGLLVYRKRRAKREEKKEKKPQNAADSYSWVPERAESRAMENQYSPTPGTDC
As to the kind of experiment: flow cytometry titration, HUVEC cells; antibody stored 4 weeks at 40 C; unit printed as nMM. The method, then: (§1) HUVEC cells were detached by incubation with TrypLE reagents (Thermo Fisher), which preserves the integrity of CD93 on the cell surface. Then the cells were incubated with serial diluted anti-CD93 antibodies for 30 minutes at 4° C. After washing by FACS buffer, the cells were incubated with Alexa Fluor 647 conjugated anti-human IgG (Jackson ImmunoResearch) for 30 minutes in 4° C. After washing by FACS buffer twice, the samples were acquired in NovoCyte Flow Cytometer and analyzed by NovoExpress software.

Assay [2] deals with T1, Human CD93 on cells (human CD93 …). Briefly: flow cytometry titration, HUVEC cells; antibody stored 2 weeks at 40 C. As for the experimental part:
as §1

The target of assay [3] is T2, Human CD93 recombinant protein (Sino Biological Inc, Catalog #12589-H08H) (human, UniProt Q9NPY3 22-580).
T2 construct: Biotinylated (EZ-LINK NHS-PEG4 biotin) in the BLI assays; also called hCD93; His-tagged human CD93
T2 sequence (looked up): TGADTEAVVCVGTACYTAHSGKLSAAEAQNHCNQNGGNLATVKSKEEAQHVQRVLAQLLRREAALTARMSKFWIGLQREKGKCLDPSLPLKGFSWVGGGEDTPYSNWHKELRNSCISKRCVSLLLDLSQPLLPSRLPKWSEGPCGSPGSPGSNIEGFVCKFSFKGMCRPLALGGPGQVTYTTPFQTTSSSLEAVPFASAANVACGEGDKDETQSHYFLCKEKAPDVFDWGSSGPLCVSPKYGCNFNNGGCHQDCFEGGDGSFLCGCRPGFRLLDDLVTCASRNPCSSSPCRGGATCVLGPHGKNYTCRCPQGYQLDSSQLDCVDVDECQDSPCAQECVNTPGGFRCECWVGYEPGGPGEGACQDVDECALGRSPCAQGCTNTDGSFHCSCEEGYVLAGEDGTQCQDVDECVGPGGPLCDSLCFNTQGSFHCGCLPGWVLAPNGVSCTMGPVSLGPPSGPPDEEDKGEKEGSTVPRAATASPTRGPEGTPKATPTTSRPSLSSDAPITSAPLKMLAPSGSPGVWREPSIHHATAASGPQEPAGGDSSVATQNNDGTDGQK
Briefly: BLI (Octet QKe), biotinylated human CD93 on streptavidin biosensors; antibody stored 2 weeks at 40 C. The method, then:
The binding affinity of anti-CD93 antibodies was determined with bio-layer interferometry using Octet QKe (Fortebio). […] Human CD93 recombinant protein (Sino Biological Inc, Catalog #12589-H08H) was biotinylated using EZ-LINK NHS-PEG4 biotin (Thermo Fisher Scientific). Streptavidin biosensors (Fortebio) were used to load biotinylated CD93 protein (300 seconds in 5 μg/ml). Baseline was stabilized for 60 seconds in 1× kinetics buffer (Fortebio) before anti-CD93 antibodies, at a serial dilution, were allowed to associate for 300 seconds with captured protein. Then the sensors were dissociated in 1× kinetics buffer for 600 seconds. […] (FIG. 42).

The target in assay [4] is T1, Human CD93 on cells (human CD93 …). As to the kind of experiment: flow cytometry titration, CHO-hCD93 cells; antibody stored 4 weeks at 40 C. As for the experimental part: Human CD93 expressing CHO cells were detached by incubation with TrypLE reagents (Thermo Fisher), which preserves the integrity of CD93 on the cell surface. Then the cells were incubated with serial diluted anti-CD93 antibodies for 30 minutes at 4° C. After washing by FACS buffer, the cells were incubated with Alexa Fluor 647 conjugated anti-human IgG (Jackson ImmunoResearch) for 30 minutes in 4° C. After washing by FACS buffer twice, the samples were acquired in NovoCyte Flow Cytometer and analyzed by NovoExpress software.

Assay [5] concerns the target T2, Human CD93 recombinant protein (Sino …). As to the kind of experiment: ELISA, hCD93-His coated, OD450; unit printed as pmM. As for the experimental part:
His-tagged human CD93 was coated onto a 96 well plate at 1 μg/mL in 1×PBS overnight at 4° C. The plate was washed with ELISA wash buffer (Boston BioProduct, Inc.) and the wells were blocked with ELISA blocking buffer for 1 hour at 37° C. Purified antibodies were serially diluted in ELISA blocking buffer (Boston BioProduct, Inc.) and incubated on the receptor for 1 hour at 37° C. The plate was washed with ELISA wash Buffer. […] The plate was washed with ELISA wash buffer. HRP substrate was added for indirect detection of the antibodies binding to CD93.

The target in assay [6] is T1, Human CD93 on cells (human CD93 …). Briefly: flow cytometry blocking assay, CHO-hCD93 cells, antibody 50 ug/ml then MMRN2 0.1 ug/ml, APC-A. The method, then: After incubation, the cells were washed with FACS buffer and incubated with anti-His conjugated APC or streptavidin conjugated APC at a ratio of 1:500 for 30 minutes at 4° C. After washing with FACS buffer twice, the samples were analyzed and data acquired in NovoCyte Flow.

B1: h7F3 (humanized 7F3, VH3+VL3) (antibody, human IgG1, V domains shown)
VH: QVQLVQSGAEVKKPGASVKVSCKASGYTFTDYEMHWVRQAPGQGLEWMGGIDPETGDTAYNQNFKGRVTMTTDTSTSTAYMELRSLTSDDTAVYYCTNYGNLYYYAMDYWGQGTSVTVSS
VL: EIVLTQSPSSLSASVGDRVTITCRASSSVSSSYLHWYQQKPGKAPKLLIYSTSNLAFGVPSRFSGSGSGTSYTFTISSLQPEDIATYYCQQYSGYPLTFGSGTKLEIK
notes: also called humanized 7F3-hIgG1
Consider B1, for which the 50% effective concentration (EC50) came out at 1.12 nM in assay [1] and 1.17 nM in assay [2].

B2: h16E4 (humanized 16E4, VH4+VL6) (antibody, V domains shown)
VH: QVQLVQSGAEVKKPGASVKVSCKASGYTFTSYWMHWVRQAPGQGLEWMGEIDPSASYTYYNQKFKGRVTMTRDKSSSTVYMELSSLTSEDSAVYYCARSVYYGNKYFDVWGAGTTVTVSS
VL: DIQMTQSPSTLSASVGDRVTITCKASQSVDYAGDSYMNWYQQKPGKAPKLLIYAASNLESGVPSRFSGSGSGTEFTLTISSLQPDDFATYYCQQTNEDPRTFGGGTKLEIK
notes: Detected with anti-human IgG, so a human Fc
Regarding B2, in assay [3], the Kd amounted to 0.0204 nM, the off-rate (koff) is 5.08e-06 s⁻¹ and the kon came out at 249000 M⁻¹ s⁻¹. In assay [4], the EC50 is 0.312 nM.

B3: 16E4 (hybridoma) (antibody, IgG2a, V domains shown)
VH: QVQLQQPGAELVKPGASVKLSCKASGYTFTSYWMHWVKQRPGQGLEWIGEIDPSASYTYYNQKFKGKATLTVDKSSSTAYMQLSSLTSEDSAVYYCARSVYYGNKYFDVWGAGTTVTVSS
VL: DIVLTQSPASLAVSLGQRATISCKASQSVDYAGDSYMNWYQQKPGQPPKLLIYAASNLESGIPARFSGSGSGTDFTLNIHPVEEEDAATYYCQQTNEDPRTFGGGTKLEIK
notes: also called 16E4 mAb; 16E4 mIgG2a
As for B3, the 50% effective concentration (EC50) in assay [5] was 0.112 nM. In addition, in assay [6], the “M3 gate, % of cells positive for MMRN2 after the antibody” value was 37.7%.
